Assay results taken from patent US20210254072, “TNF-TARGETING APTAMERS AND USES THEREOF FOR TREATMENT OR DIAGNOSING TNF-RELATED INFLAMMATORY DISEASES” (Academia Sinica, published 2021).

What was measured:
TNF-alpha = TNF-alpha (Mus musculus, UniProt P06804 P06804:80-235); assay: filter; 140 nM protein, 50 nM aptamer; fold over BSA, value only in figure; settings: chain copies: 3 (inferred)
Method: (§1) Human TNF-α proteins (0, 8.75, 17.5, 35, 70, 140 nM, R&D Systems) were incubated with aptTNF-α (50 nM) at 37° C. for 1 h. In addition, mouse TNF-α proteins (140 nM) or BSA (140 nM) were incubated with aptTNF-α (50 nM) or aptTNF-α-PEG (50 nM) as well. The protein-bound aptamers were then collected by nitrocellulose filter and eluted by heating. The amount of the eluted aptamers was quantified by quantitative PCR (LightCycler 480 system, Roche Applied Science, Mannheim, Germany) The dissociated constant (Kd) was calculated by GraphPad Prism 5 (GraphPad Software, San Diego, Calif.), using the equation Y=Amax×X/(Kd+X). The relative amounts of protein-binding aptamers (human TNF-α proteins and mouse TNF-α proteins) were represented as fold changes, using BSA as the reference (1 fold).

[1] = target: BSA (bovine serum albumin) (UniProt P02769 P02769:25-607); assay: filter; BSA 140 nM used as reference (1 fold)
BSA (bovine serum albumin), sequence (P02769 25-607, one chain of several): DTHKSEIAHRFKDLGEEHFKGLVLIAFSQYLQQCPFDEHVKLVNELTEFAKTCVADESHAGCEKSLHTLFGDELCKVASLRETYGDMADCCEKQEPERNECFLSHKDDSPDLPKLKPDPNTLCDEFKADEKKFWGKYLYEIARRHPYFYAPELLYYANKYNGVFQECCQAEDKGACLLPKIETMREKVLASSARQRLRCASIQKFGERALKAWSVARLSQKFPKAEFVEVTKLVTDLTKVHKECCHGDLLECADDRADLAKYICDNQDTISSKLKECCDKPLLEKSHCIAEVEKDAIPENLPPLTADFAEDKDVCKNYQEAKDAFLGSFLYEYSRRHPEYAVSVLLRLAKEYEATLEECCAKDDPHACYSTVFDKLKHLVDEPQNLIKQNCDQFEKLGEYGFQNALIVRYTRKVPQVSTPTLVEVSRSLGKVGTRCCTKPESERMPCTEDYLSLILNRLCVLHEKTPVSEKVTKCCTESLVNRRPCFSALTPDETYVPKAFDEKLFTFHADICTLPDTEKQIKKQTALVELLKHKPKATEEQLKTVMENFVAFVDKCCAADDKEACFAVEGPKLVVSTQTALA
Method: as §1

TNF-alpha, sequence (P06804 80-235, one chain of several): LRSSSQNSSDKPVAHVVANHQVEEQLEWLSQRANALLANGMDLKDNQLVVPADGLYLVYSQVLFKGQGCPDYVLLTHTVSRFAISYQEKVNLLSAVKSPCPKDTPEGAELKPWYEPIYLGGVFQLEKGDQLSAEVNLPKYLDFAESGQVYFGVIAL

B1: aptTNF-alpha (ssDNA)
DNA: GCGCCACTACAGGGGAGCTGCCATTCGAATAGGTGGGCCGC
Q: Does B1 bind (TNF-alpha)?
A: Result: binds

Q: What about the binding signal [1] of the same binder?
A: The binding signal was 1 fold.

B2: aptTNF-alpha-PEG (dimer) (ssDNA)
DNA: B1 DNA
modifications: two copies of amine-labeled SEQ ID NO: 1 linked by 20 kDa PEG (NHS-PEG-NHS)
Q: Does B2 bind (TNF-alpha)?
A: Result: binds

Q: What about the binding signal [1] of the same binder?
A: The binding signal was 1 fold.
